Assay results from publication PMC3826434 (Biochemistry, 2013).

Molecular target: the molecule itself
Assay: native gel or EMSA

B1: CmlA, β-hydroxylase of the chloramphenicol biosynthetic pathway (wild type) (enzyme)
chain: MRYSLRQDIAVEPVIAGWYGWSYLLPPQTLARFVHNRFNRIVESYLDDPQVHAAAVRQRRMHGGPWIHAHEHRDAIEAWYRETAPRRERLDELFEAVRRLEEDILPRHHGECLDPVYQELPAALAGRVEVFYGRDNRTADYRFVEPLMYASEYYDESWQQVRFRPVTEDAREFALTTPMLEYGPEQLLVDVPLNSPLLDAVFRGGLTGTELDDLAARFGLDGERAARFASYFEPTPAASEAPAPASSSEEDVLEYVGHACVFARHRGTTFLVDPVLSYSGYPGGAENRFTFADLPERIDHLLITHNHQDHMLFETLLRIRHRVGRVLVPKSTNASLVDPGLGGILRRLGFTDVVEVDDLETLSCGSAEVVALPFLGEHGDLRIRSKTGWLIRFGERSVLFAADSTNISPTMYTKVAEVIGPVDTVFIGMESIGAAASWIYGPLYGEPLDRRTDQSRRLNGSNFPQAREIVDALEPDEVYVYAMGLEPWMGVVMAVDYDESHPAIVDSDLLVRHVQDKGGTAERLHLRRTLRL
B1 was tested, and the “stoichiometry N” value was 2.
